These results are taken from patent publication US20150118260A1 (GENERAL HOSPITAL, published 2015).

The target in assay [1] is T1, human CD80 on the human CD80-expressing leukemia cell line THP-1 (human, UniProt P33681 35-288).
T1 construct: whole, on cells
T1 sequence (looked up): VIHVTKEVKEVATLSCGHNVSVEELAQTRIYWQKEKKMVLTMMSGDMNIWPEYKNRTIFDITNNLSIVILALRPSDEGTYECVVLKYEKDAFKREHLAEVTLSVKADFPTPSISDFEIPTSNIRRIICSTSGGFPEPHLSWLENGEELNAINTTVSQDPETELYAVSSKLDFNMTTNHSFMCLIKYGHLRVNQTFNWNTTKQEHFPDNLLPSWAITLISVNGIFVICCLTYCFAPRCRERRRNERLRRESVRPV
The experiment in a line: flow cytometry with biotinylated soluble porcine CTLA-4 on THP-1 cells.

The target of assay [2] is T2, porcine CD80 on the porcine CD80-expressing B-cell lymphoma cell line LCL13271-5E4 (porcine).
T2 construct: whole, on cells; The cell line was picked as CD80-expressing by staining with hamster anti-mouse CD80 mAb 16-10A1; CD86 on these cells is not addressed; also called LC13271-5E4
The experiment in a line: flow cytometry on LCL13271-5E4 cells, MFI against concentration of biotinylated protein, non-linear least-squares fit.

Where a chain is given by its changes, count along the chain named. Numbers in names are those of the source.

B1: glycosylated soluble porcine CTLA-4 carrying 6xHis tag in the C-terminus (aa 38-161, 124 aa + 6xHis) (receptor)
chain: MHVAQPAVVLANSRGVASFVCEYGSAGKAAEVRVTVLRRAGSQMTEVCAATYTVEDELTFLDDSTCTGTSTENKVNLTIQGLRAVDTGLYICKVELLYPPPYYVGMGNGTQIYVIDPEPCPDSDHHHHHH
modifications: N-glycosylated completely or partially (Pichia pastoris); labeled with Sulfo-NHS biotin in the direct binding and KD assays, non-biotinylated in the blocking assay
notes: Expressed in Pichia pastoris X33; The entry includes the 6xHis tag; also called pCTLA-4-Gly; pCTLA4-6xHis
With B1, the binding result in assay [1] is on record as “no binding”. In addition, in assay [2], the Kd amounted to 13 nM.

B2: non-N-glycosylated soluble porcine CTLA-4 carrying 6xHis tag (aa 38-161, 124 aa + 6xHis; N76A, N108A) (receptor)
chain: B1 chain with N76A, N108A
modifications: labeled with Sulfo-NHS biotin in the direct binding and KD assays, non-biotinylated in the blocking assay
notes: also called pCTLA-4-Non-N-Gly; non-N-glycosylated porcine soluble CTLA-4
Regarding B2, the binding result in assay [1] is given as “no binding”. In addition, the Kd in assay [2] came out at 13 nM.
